From patent US8357523B2, “Beta-glucosidase variant enzymes and related polynucleotides” (Codexis, Inc., priority 2009, dated 2013) come the findings set out here.

The chains are these.
B1: 121 (protein)
chain: STAIAQEGAAPAAILHPEKWPRPATQRLIDPAVEKRVDALLKQLSVEEKVGQVIQGDIGTITPEDLRKYPLGSILAGGNSGPNGDDRAPPKEWLDLADAFYRVSLEKRPGHTPIPVLFGIDAVHGHGNIGSATIFPHNIALGATRSPELLRRIGEVTAVEMTATGIDWTFAPCLSVVRDDRWGRTYEGFSEDPEIVAAYSPAIVEGVQGKFGSKDFMAPGRIVASAKHFLADGGTDQGRDQGDARISEDELIRIHNAGYPPAIDAGVLTVMASFSSWQGIKHHGHKQLLTDVLKGQMGFNGFIVGDWNAHDQVPGCTKFNCPTSLIAGLDMYMAADSWKQLYENTLAQVKDGTIPMARLDDAVRRILRVKVLAGLFEKPAPKDRPGLPGLETLGSPEHRAVGREAVRKSLVLLKNDKGTLPLSPKARVLVAGDGADNIGKQSGGWTISWQGTGNRNDEFPGATSILGGIRDAVADAGGSVEFDVAGQYKTKPDVAIVVFGEEPYAEFQGDVETLEYQPDQKQDLALLKKLKDQGIPVVAVFLSGRPMWVNPELNASDAFVAAWLPGTEGGGVADVLFTDKAGKVQHDFAGKLSYSWPRTAAQTTVNRGDADYNPLFAYGYGLTYKDKSKVGTLPEESGVPAEARQNAGIYFRAGALRLPGRFL
B2: 126 (protein)
chain: STAIAQEGAAPAAILHPEKWPRPATQRLIDPAVEKRVDALLKQLSVEEKVGQVIQGDIGTITPEDLRKYPLGSILAGGDSGPNGDDRAPPKEWLDLADAFYRVSLEKRPGHTPIPVLFGIDAVHGHGNIGSATIFPHNIALGMTRDPELLRRIGEVTAVEMTATGIDWTFAPALSVVRDDRWGRTYEGFSEDPEIVAAYSPAIVEGVQGKFGSKDFMAPGRIVACAKHFLADGGTDQGRDQGDARISEDELIRIHNAGYPPAIDAGVLTVMASFSSWQGIKHHGHKQLLTDVLKGQMGFNGFIVGDWNAHDQVPGCTKFNCPTSLIAGLDMYMAADSWKQLYENTLAQVKDGTIPMARLDDAVRRILRVKVLAGLFEKPAPKDRPGLPGLETLGSPEHRAVGREAVRKSLVLLKNDKGTLPLSPKARVLVAGDGADNIGKQSGGWTISWQGTGNRNDEFPGATSILGGIRDAVADAGGSVEFDVAGQYKTKPDVAIVVFGEEPYAEFQGDVETLEYQPDQKQDLALLKKLKDQGIPVVAVFLSGRPMWVNPELNASDAFVAAWLPGTEGGGVADVLFTDKAGKVRHDFAGKLSYSWPRTAAQTTVNRGDADYNPLFAYGYGLTYKDKSKVGTLPEESGVPAEARQNAGIYFRAGALRLPGRFL
B3: 125 (protein)
chain: STAIAQEGAAPAAILHPEKWPRPATQRLIDPAVEKRVDALLKQLSVEEKVGQVIQGDIGTITPEDLRKYPLGSILAGGNSGPNGDDRAPPKEWLDLADAFYRVSLEKRPGHTPIPVLFGIDAVHGHGNIGSATIFPHNIALGATRDPELLRRIGEVTAVEMAATGIDWTFAPALSVVRDDRWGRTYEGFSEDPEIVAAYSPAIVEGVQGKFGSKDFMAPGRSVACAKHFLADGGTDQGRDQGDARISEDELIRIHNAGYPPAIDAGVLTVMASFSSWQGIKHHGHKQLLTDVLKGQMGFNGFIVGDWNAHDQVPGCTKFNCPTSLIAGLDMYMAADSWKQLYENTLAQVKDGTIPMARLDDAVRRILRVKVLAGLFEKPAPKDRPGLPGLETLGSPEHRAVGREAVRKSLVLLKNDKGTLPLSPKARVLVAGDGADNIGKQSGGWTISWQGTGNRNDEFPGATSILGGIRDAVADAGGSVEFDVAGQYKTKPDVAIVVFGEEPYAEFQGDVETLEYQPDQKQDLALLKKLKDQGIPVVAVFLSGRPMWVNPELNASDAFVAAWLPGTEGGGVADVLFTDKAGKVQHDFAGKLSYSWPRTAAQTTVNRGDADYNPLFAYGYGLTYKDKSKVGTLPEESGVPAEARQNAGIYFRAGALRLPGRFL
B4: 122 (protein)
chain: STAIAQEGAAPAAILHPEKWPRPATQRLIDPAVEKRVDALLKQLSVEEKVGQVIQGDIGTITPEDLRKYPLGSILAGGDSGPNGDDRAPPKEWLDLADAFYRVSLEKRPGHTPIPVLFGIDAVHGHGKIGSATIFPHNIALGATRDPELLRRIGEVTAEEMAATGIDWTFAPALSVVRDDRWGRTYEGFSEDPEIVAAYSPAIVEGVQGKYGSKDFMAVGRIVACAKHFLADGGTDQGRDQGDARISEDELIRIHNAGYPPAIDAGVLTVMASFSSWQGIKHHGHKQLLTDVLKGQMGFNGFIVGDWNAHDQVPGCTKFNCPTSLIAGLDMYMAADSWKQLYENTLAQVKDGTIPMARLDDAVRRILRVKVLAGLFEKPAPKDRPGLPGLETLGSPEHRAVGREAVRKSLVLLKNDKGTLPLSPKARVLVAGDGADNIGKQSGGWTISWQGTGNRNDEFPGATSILGGIRDAVADAGGSVEFDVAGQYKTKPDVAIVVFGEEPYAEFQGDVETLEYQPDQKQDLALLKKLKDQGIPVVAVFLSGRPMWVNPELNASDAFVAAWLPGTEGGGVADVLFTDKAGKVQHDFAGKLSYSWPRTAAQTTVNRGDADYNPLFAYGYGLTYKDKSKVGTLPEESGVPAEARQNAGIYFRAGALRLPGRFL
B5: 128 (protein)
chain: STAIAQEGAAPAAILHPEKWPRPATQRLIDPAVEKRVDALLKQLSVEEKVGQVIQGDIGTITPEDLRKYPLGSILAGGDSGPNGDDRAPPKEWLDLADAFYRVSLEKRPGHTPIPVLFGIDAVHGHGKIGSATIFPHNIALGMTRDPELLRRIGEVTAEEMAATGIDWTFAPALSVVRDDRWGRTYEGFSEDPEIVAAYSPAIVEGVQGKYGSKDFMAPGRIVACAKHFLADGGTDQGRDQGDARISEDELIRIHNAGYPPAIDAGVLTVMASFSSWQGIKHHGHKQLLTDVLKGQMGFNGFIVGDWNAHDQVPGCTKFNCPTSLIAGLDMYMAADSWKQLYENTLAQVKDGTIPMARLDDAVRRILRVKVLAGLFEKPAPKDRPGLPGLETLGSPEHRAVGREAVRKSLVLLKNDKGTLPLSPKARVLVAGDGADNIGKQSGGWTISWQGTGNRNDEFPGATSILGGIRDAVADAGGSVEFDVAGQYKTKPDVAIVVFGEEPYAEFQGDVETLEYQPDQKQDLALLKKLKDQGIPVVAVFLSGRPMWVNPELNASDAFVAAWLPGTEGGGVADVLFTDKAGKVQHDFAGKLSYSWPRTAAQTTVNRGDADYNPLFAYGYGLTYKDKSKVGTLPEESGVPAEARQNAGIYFRAGALRLPGRFL
B6: 123 (protein)
chain: STAIAQEGAAPAAILHPEKWPRPATQRLIDPAVEKRVDALLKQLSVEEKVGQVIQGDIGTITPEDLRKYPLGSILAGGDSGPNGDDRAPPKEWLDLADAFYRVSLEKRPGHTPIPVLFGIDAVHGHGKIGSATIFPHNIALGMTRDPELLRRIGEVTAVEMTATGIDWTFAPALSVVRDDRWGRTYEGFSEDPEIVAAYSPAIVEGVQGKYGSKDFMAVGRIVASAKHFLADGGTDQGRDQGDARISEDELIRIHNAGYPPAIDAGVLTVMASFSSWQGIKHHGHKQLLTDVLKGQMGFNGFIVGDWNAHDQVPGCTKFNCPTSLIAGLDMYMAADSWKQLYENTLAQVKDGTIPMARLDDAVRRILRVKVLAGLFEKPAPKDRPGLPGLETLGSPEHRAVGREAVRKSLVLLKNDKGTLPLSPKARVLVAGDGADNIGKQSGGWTISWQGTGNRNDEFPGATSILGGIRDAVADAGGSVEFDVAGQYKTKPDVAIVVFGEEPYAEFQGDVETLEYQPDQKQDLALLKKLKDQGIPVVAVFLSGRPMWVNPELNASDAFVAAWLPGTEGGGVADVLFTDKAGKVQHDFAGKLSYSWPRTAAQTTVNRGDADYNPLFAYGYGLTYKDKSKVGTLPEESGVPAEARQNAGIYFRAGALRLPGRFL
B7: 124 (protein)
chain: STAIAQEGAAPAAILHPEKWPRPATQRLIDPAVEKRVDALLKQLSVEEKVGQVIQGDIGTITPEDLRKYPLGSILAGGDSGPNGDDRAPPKEWLDLADAFYRVSLEKRPGHTPIPVLFGIDAVHGHGNIGSATIFPHNIALGATRSPELLRRIGEVTAEEMAATGIDWTFAPALSVVRDDRWGRTYEGFSEDPEIVAAYSPAIVEGVQGKYGSKDFMAPGRIVACAKHFLADGGTDQGRDQGDARISEDELIRIHNAGYPPAIDAGVLTVMASFSSWQGIKHHGHKQLLTDVLKGQMGFNGFIVGDWNAHDQVPGCTKFNCPTSLIAGLDMYMAADSWRQLYENTLAQVKDGTIPMARLDDAVRRILRVKVLAGLFEKPAPKDRPGLPGLETLGSPEHRAVGREAVRKSLVLLKNDKGTLPLSPKARVLVAGDGADNIGKQSGGWTISWQGTGNRNDEFPGATSILGGIRDAVADAGGSVEFDVAGQYKTKPDVAIVVFGEEPYAEFQGDVETLEYQPDQKQDLALLKKLKDQGIPVVAVFLSGRPMWVNPELNASDAFVAAWLPGTEGGGVADVLFTDKAGKVQHDFAGKLSYSWPRTAAQTTVNRGDADYNPLFAYGYGLTYKDKSKVGTLPEESGVPAEARQNAGIYFRAGALRLPGRFL
B8: 127 (protein)
chain: STAIAQEGAAPAAILHPEKWPRPATQRLIDPAVEKRVDALLKQLSVEEKVGQVIQGDIGTITPEDLRKYPLGSILAGGDSGPNGDDRAPPKEWLDLADAFYRVSLEKRPGHTPIPVLFGIDAVHGHGNIGSATIFPHNIALGATRSPELLRRIGEVTAVEMAATGIDWTFAPALSVVRDDRWGRTYEGFSEDPEIVAAYSPAIVEGVQGKYGSKDFMAPGRSVACAKHFLADGGTDQGRDQGDARISEDELIRIHNAGYPPAIDAGVLTVMASFSSWQGIKHHGHKQLLTDVLKGQMGFNGFIVGDWNAHDQVPGCTKFNCPTSLIAGLDMYMAADSWKQLYENTLAQVKDGTIPMARLDDAVRRILRVKVLAGLFEKPAPKDRPGLPGLETLGSPEHRAVGREAVRKSLVLLKNDKGTLPLSPKARVLVAGDGADNIGKQSGGWTISWQGTGNRNDEFPGATSILGGIRDAVADAGGSVEFDVAGQYKTKPDVAIVVFGEEPYAEFQGDVETLEYQPDQKQDLALLKKLKDQGIPVVAVFLSGRPMWVNPELNASDAFVAAWLPGTEGGGVADVLFTDKAGKVQHDFAGKLSYSWPRTAAQTTVNRGDADYNPLFAYGYGLTYKDKSKVGTLPEESGVPAEARQNAGIYFRAGALRLPGRFL

The series is described as follows: High throughput cellobiose assay: fold improvement in cellobiase activity of CelA variants over a control enzyme (Tables 2A-2D, 3, 5, 6, 7). Format: biochemical. The following applies: 3.3 g/l cellobiose, 55° C. and pH 6.0.
Turning to B1, the “Fold improvement over Control Variant No. 5 from Table 2A” value is listed as “++ (++ = 1.1 to 6 fold improvement over control Variant No. 2)”. The result for B2 reads “++ (++ = 1.1 to 6 fold improvement over control Variant No. 2)”. The result for B3 reads “+++ (+++ = 6 to 13 fold improvement over control Variant No. 2)”; that for B4, “+++ (+++ = 6 to 13 fold improvement over control Variant No. 2)”. Under B5 stands “+++ (+++ = 6 to 13 fold improvement over control Variant No. 2)”; under B6, “++ (++ = 1.1 to 6 fold improvement over control Variant No. 2)”; under B7, “+++ (+++ = 6 to 13 fold improvement over control Variant No. 2)”.

For B8, the “Fold improvement over Control Variant No. 5 from Table 2A” value was “+++ (+++ = 6 to 13 fold improvement over control Variant No. 2)”.
